This is an account of results in US20060211610A1 (IPSEN PHARMA S A S, published 2006).

Non-standard residues stand in square brackets, D forms with d. Phe(3,4,5-F3) = N[C@@H](Cc1cc(F)c(F)c(F)c1)C(=O)O; Ac6c = NC1(C(=O)O)CCCCC1 A value given as a limit tells only on which side of the number the result lay.

One assay concerns the target T1, Y2 receptor (human, UniProt P49146 1-381).
T1 construct: whole, on cells; Assayed as membrane homogenates of SK-N-BE2 cells, not intact cells
T1 sequence (looked up): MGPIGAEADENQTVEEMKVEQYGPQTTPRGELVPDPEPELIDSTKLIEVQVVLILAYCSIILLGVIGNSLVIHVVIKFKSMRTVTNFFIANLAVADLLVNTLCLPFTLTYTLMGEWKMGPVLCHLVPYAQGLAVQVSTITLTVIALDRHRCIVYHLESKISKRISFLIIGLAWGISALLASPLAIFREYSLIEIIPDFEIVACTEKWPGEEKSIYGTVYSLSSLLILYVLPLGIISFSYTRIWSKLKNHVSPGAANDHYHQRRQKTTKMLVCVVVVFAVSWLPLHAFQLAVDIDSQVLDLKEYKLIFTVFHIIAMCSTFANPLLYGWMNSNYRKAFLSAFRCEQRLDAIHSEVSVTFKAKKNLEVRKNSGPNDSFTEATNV
As to the kind of experiment: radioligand competition against [125I]PYY(3-36), SK-N-BE2 membranes, Cheng-Prusoff. (Displacement assays read how much labelled ligand stays bound in the presence of the test substance.)

The target in another assay is T2, Y1 receptor (human, UniProt P25929 1-384).
T2 construct: whole, on cells; Assayed as membrane homogenates of SK-N-MC cells, not intact cells; also called NPY Y1
T2 sequence (looked up): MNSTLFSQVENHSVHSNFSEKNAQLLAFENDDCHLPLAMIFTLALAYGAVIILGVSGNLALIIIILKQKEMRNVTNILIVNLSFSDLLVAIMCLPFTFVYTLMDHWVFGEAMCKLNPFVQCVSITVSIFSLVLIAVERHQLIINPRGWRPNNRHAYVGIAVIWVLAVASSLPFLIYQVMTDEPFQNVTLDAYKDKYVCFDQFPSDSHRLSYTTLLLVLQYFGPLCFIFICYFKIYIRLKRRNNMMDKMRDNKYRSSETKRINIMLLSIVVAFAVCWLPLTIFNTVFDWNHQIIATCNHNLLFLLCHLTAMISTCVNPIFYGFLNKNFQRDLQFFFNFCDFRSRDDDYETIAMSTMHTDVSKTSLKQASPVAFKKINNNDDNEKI
In words: radioligand competition against [125I-Leu31,Pro34]PYY, SK-N-MC membranes, Cheng-Prusoff.

Assay [1] concerns the target T3, Y1 receptor (human), P25929.
T3 chain: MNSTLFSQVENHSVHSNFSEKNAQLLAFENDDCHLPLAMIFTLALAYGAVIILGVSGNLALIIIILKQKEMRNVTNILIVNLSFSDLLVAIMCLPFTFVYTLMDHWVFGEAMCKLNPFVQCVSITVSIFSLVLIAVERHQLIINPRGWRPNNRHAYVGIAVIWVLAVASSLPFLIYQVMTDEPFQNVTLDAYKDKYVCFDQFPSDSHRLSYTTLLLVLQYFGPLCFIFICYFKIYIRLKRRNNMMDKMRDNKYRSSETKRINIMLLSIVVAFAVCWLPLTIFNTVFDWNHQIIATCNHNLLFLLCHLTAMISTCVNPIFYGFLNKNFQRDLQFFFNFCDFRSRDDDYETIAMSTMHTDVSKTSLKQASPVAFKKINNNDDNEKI

Assay [2] has as its target T4, Y2 receptor (human), P49146.
T4 chain: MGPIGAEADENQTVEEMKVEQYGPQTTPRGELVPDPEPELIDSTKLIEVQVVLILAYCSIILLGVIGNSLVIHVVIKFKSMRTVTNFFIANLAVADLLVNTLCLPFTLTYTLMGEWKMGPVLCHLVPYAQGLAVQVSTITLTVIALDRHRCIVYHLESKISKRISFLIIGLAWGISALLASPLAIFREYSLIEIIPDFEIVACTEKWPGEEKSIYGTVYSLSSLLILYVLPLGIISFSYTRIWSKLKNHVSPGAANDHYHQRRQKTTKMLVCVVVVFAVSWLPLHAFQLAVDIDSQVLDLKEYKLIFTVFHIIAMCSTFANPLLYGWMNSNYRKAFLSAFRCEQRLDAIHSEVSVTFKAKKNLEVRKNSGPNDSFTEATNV

B1: Ac-[A6C^28, Leu^31]hPYY(24-36)NH2 (peptide)
peptide: Ac-LRHY[Ac6c]NLLTRQRY-NH2
SMILES: CC(=O)N[C@@H](CC(C)C)C(=O)N[C@@H](CCCNC(=N)N)C(=O)N[C@@H](Cc1c[nH]cn1)C(=O)N[C@@H](Cc1ccc(O)cc1)C(=O)NC1(C(=O)N[C@@H](CC(N)=O)C(=O)N[C@@H](CC(C)C)C(=O)N[C@@H](CC(C)C)C(=O)N[C@H](C(=O)N[C@@H](CCCNC(=N)N)C(=O)N[C@@H](CCC(N)=O)C(=O)N[C@@H](CCCNC(=N)N)C(=O)N[C@@H](Cc2ccc(O)cc2)C(N)=O)[C@@H](C)O)CCCCC1
notes: Also carries Leu at 31 (residue 8 of the peptide), already in the entry
Broadly, the Ki is the equilibrium dissociation constant of an inhibitor or competing ligand from its target. A low value points to tighter binding. Consider B1, for which the inhibition constant (Ki) with Y2 receptor is less than 1 µM; with Y1 receptor, less than 2 µM.

B2: Ac-[A6C^31]hPYY(24-36)NH2 (peptide)
peptide: Ac-LRHYLNL[Ac6c]TRQRY-NH2
SMILES: CC(=O)N[C@@H](CC(C)C)C(=O)N[C@@H](CCCNC(=N)N)C(=O)N[C@@H](Cc1c[nH]cn1)C(=O)N[C@@H](Cc1ccc(O)cc1)C(=O)N[C@@H](CC(C)C)C(=O)N[C@@H](CC(N)=O)C(=O)N[C@@H](CC(C)C)C(=O)NC1(C(=O)N[C@H](C(=O)N[C@@H](CCCNC(=N)N)C(=O)N[C@@H](CCC(N)=O)C(=O)N[C@@H](CCCNC(=N)N)C(=O)N[C@@H](Cc2ccc(O)cc2)C(N)=O)[C@@H](C)O)CCCCC1
notes: Synthetic analog of human PYY(24-36)
Turning to B2, the values for the inhibition constant (Ki) with Y2 receptor and with Y1 receptor were less than 1 µM and less than 2 µM, respectively.

B3: Ac-[(3,4,5-F)Phe^27]hPYY(22-36)NH2 (peptide)
peptide: Ac-ASLRH[Phe(3,4,5-F3)]LNLVTRQRY-NH2
SMILES: CC(=O)N[C@@H](C)C(=O)N[C@@H](CO)C(=O)N[C@@H](CC(C)C)C(=O)N[C@@H](CCCNC(=N)N)C(=O)N[C@@H](Cc1c[nH]cn1)C(=O)N[C@@H](Cc1cc(F)c(F)c(F)c1)C(=O)N[C@@H](CC(C)C)C(=O)N[C@@H](CC(N)=O)C(=O)N[C@@H](CC(C)C)C(=O)N[C@H](C(=O)N[C@H](C(=O)N[C@@H](CCCNC(=N)N)C(=O)N[C@@H](CCC(N)=O)C(=O)N[C@@H](CCCNC(=N)N)C(=O)N[C@@H](Cc1ccc(O)cc1)C(N)=O)[C@@H](C)O)C(C)C
In the case of B3, the Ki in assay [1] is less than 2 µM; in assay [2] it was less than 1 µM.

B4: Ac-[A6C^24, Leu^31]hPYY(24-36)NH2 (peptide)
peptide: Ac-[Ac6c]RHYLNLLTRQRY-NH2
SMILES: CC(=O)NC1(C(=O)N[C@@H](CCCNC(=N)N)C(=O)N[C@@H](Cc2c[nH]cn2)C(=O)N[C@@H](Cc2ccc(O)cc2)C(=O)N[C@@H](CC(C)C)C(=O)N[C@@H](CC(N)=O)C(=O)N[C@@H](CC(C)C)C(=O)N[C@@H](CC(C)C)C(=O)N[C@H](C(=O)N[C@@H](CCCNC(=N)N)C(=O)N[C@@H](CCC(N)=O)C(=O)N[C@@H](CCCNC(=N)N)C(=O)N[C@@H](Cc2ccc(O)cc2)C(N)=O)[C@@H](C)O)CCCCC1
notes: as for B1
For the molecule B4, the Ki was less than 1 µM in the assay with Y2 receptor and less than 2 µM in the assay with Y1 receptor.
